Measured values: publication PMC9348755 (Science (New York, N.y.), 2022)

T1: SARS-CoV-2 S fusion peptide K811[…]825 (SARS-CoV-2)
T1 construct: source: synthetic peptide
T1 chain: KPSKRSFIEDLLFNK

T2: 229E S protein (commercially available, recombinant) (human coronavirus 229E, strain of …)
T2 chain: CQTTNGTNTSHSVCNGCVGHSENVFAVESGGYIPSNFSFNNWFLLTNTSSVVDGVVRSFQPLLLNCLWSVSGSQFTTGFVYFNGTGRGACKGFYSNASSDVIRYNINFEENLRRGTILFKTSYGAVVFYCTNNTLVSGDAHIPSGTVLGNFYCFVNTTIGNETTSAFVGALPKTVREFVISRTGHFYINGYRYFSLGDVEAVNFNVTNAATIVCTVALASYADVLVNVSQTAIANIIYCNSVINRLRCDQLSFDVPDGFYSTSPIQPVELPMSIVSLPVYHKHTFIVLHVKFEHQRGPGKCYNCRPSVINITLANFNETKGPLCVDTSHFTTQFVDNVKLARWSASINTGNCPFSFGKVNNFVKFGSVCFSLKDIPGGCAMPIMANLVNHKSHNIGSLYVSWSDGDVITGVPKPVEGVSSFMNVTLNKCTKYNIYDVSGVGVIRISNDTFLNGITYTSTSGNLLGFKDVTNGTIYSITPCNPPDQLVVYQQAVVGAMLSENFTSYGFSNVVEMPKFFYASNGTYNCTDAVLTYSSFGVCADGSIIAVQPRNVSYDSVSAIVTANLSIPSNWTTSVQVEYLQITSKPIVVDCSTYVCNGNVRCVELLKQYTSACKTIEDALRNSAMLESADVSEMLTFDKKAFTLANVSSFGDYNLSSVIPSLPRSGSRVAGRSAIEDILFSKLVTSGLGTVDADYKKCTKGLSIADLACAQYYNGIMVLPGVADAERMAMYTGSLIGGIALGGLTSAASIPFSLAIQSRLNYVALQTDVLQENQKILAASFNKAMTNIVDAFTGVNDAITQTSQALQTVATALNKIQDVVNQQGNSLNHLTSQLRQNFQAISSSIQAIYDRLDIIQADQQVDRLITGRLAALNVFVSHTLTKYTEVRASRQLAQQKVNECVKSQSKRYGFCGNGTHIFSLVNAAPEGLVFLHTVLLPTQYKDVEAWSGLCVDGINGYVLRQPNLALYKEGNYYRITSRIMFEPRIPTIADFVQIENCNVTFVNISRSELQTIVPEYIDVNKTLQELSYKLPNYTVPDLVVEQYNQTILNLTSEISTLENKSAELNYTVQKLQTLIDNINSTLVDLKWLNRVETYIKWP

B1: VN01H1 mAb (antibody, V domains shown)
VH: EVQLVESGGGLVLPGGSLRLSCSASGFTFSDFSMHWVRQSPGKGLEYVSAITSSGSSTYYPDSVKGRFTISRDNSKNTLYLQMGSLRVEDTAVYWCVKNSDVFRFPHLYFDVWGRGTLVTVSS
VL: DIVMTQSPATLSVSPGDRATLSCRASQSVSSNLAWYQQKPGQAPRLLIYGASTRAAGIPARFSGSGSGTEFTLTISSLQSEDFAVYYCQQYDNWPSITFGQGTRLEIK
notes: also called Group 3 mAb; fusion peptide-specific mAb
B2: C13B8 mAb (antibody, V domains shown)
VH: QVQLQESGPGLVQPSQTLTLTCTVSGDSISNEDYHWTWIRQHPGKGLEWMGYLQYSGNTNYNPSLKSRMTISVDTSKNQFSLRLNSVTAADTAVYFCATSIVLTGMSNKIQPFDYWGQGTLVTVSS
VL: SYELTQPPSVSVSPGQMARITCSGEALPKKYAYWYQQKGGQFPVLVIYKDTERPSGIPERFSGSSSGTIVTLTISGVQPEDEADYYCLSADTSGTWVFGGGTKLTVL
notes: as for B1
B3: C77G12 mAb (antibody, V domains shown)
VH: EVQLVESGGGVVQPGRSLRISCAVSGFTFGSYAMHWVRQAPGKGLEWVGVMSSDGHNEYYADSVKGRFTISRDNSRNKLYLEMNNLRVDDTAVFYCARGSDYVDDSPPLHYWGQGTLVTVSS
VL: DIQLTQSPSSLSASIGDRVTITCRASQDIANKLAWFQQAPGKAPKSLIYAASRLQSGVPSQFSGSGSGTDFTLTIESLQAGDFATYFCQQYDSFPFTFGPGTKVDVK
notes: as for B1
B4: C13C9 mAb (antibody, V domains shown)
VH: EVQLVQSGPEVKKPGTSARVSCKASGFTSKNTALQWVRQARGQPLEWMGWIDISNYITNYAQKFRGRLTITWDLSASMAYMELSSLRSEDTAVYYCAAVGKDDDVLTGGNKYFDHWGQGTLVTVSS
VL: SYELTQPPSVSVSPGQTARITCSGDALPKKYAYWYQQKSGQAPVLVIHEDDKRPSGIPGRFSASSSGTTATLTISGAQVEDEADYYCYSTDTNDNHAFGSGTKLTVL
notes: as for B1
B5: VP12E7 mAb (antibody, V domains shown)
VH: QVQLVQSGGGVVQPGESLRLSCSGSGFTFNNYIMHWVRQAPGQGLDYVSGIGSDGRNTNYGDSVKGRFTISRDNSKDTLYLQMTSLRAEDTAFYYCVKGLDVLRFLDLSTPSGERLDAFDIWGQGTMVTVSS
VL: DIVMTQSPSFLSASVGDRVTITCRASQGISNYLAWYQQKPGKAPHLLIYAASTLQSGVPSRFSGSGSGTEFTLTISSLQPEDFATYYCQQLNSYPLFTFGPGTKVDIE
notes: as for B1
B6: VN01H1 Fab (Fab, V domains shown)
VH: B1 VH
VL: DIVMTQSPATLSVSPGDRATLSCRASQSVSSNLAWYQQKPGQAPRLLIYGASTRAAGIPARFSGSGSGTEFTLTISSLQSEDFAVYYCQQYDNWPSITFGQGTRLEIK
B7: C13B8 Fab (Fab, V domains shown)
VH: B2 VH
VL: B2 VL
B8: C77G12 Fab (Fab, V domains shown)
VH: B3 VH
VL: B3 VL
B9: C13C9 Fab (Fab, V domains shown)
VH: B4 VH
VL: B4 VL
B10: VP12E7 Fab (Fab, V domains shown)
VH: B5 VH
VL: B5 VL

Biological target: T1, SARS-CoV-2 S fusion peptide K811[…]825
Test: ELISA
Settings: both partners purified

Row | Binder | binding result
1 | B1 | binds
2 | B2 | binds
3 | B3 | binds
4 | B4 | binds
5 | B5 | binds

The binders below were run against T3, full length SARS-CoV-2 S Wuhan-Hu-1 on HEK293T cells (Severe acute respiratory syndrome …, UniProt P0DTC2) (assay: flow cytometry on cells). Settings: one partner purified.
T3 construct: source: HEK293T, transiently transfected, on the cell surface

Row | Binder | binding result
6 | B1 | binds
7 | B2 | binds
8 | B3 | binds
9 | B4 | binds
10 | B5 | binds

The binders below were run against T4, SARS-CoV S on HEK293T cells (Severe acute respiratory syndrome …, UniProt P59594) (assay: flow cytometry on cells). Settings: one partner purified.
T4 construct: source: HEK293T, transfected, on the cell surface

Row | Binder | binding result
11 | B1 | binds
12 | B2 | binds
13 | B3 | binds
14 | B4 | binds
15 | B5 | binds

Each binder was assayed against T5, MERS-CoV S on HEK293T cells (MERS-CoV, strain ; entry is …, UniProt K9N5Q8) (assay: flow cytometry on cells). Settings: one partner purified.
T5 construct: source: HEK293T, transfected, on the cell surface
T5 sequence (K9N5Q8 18-1353): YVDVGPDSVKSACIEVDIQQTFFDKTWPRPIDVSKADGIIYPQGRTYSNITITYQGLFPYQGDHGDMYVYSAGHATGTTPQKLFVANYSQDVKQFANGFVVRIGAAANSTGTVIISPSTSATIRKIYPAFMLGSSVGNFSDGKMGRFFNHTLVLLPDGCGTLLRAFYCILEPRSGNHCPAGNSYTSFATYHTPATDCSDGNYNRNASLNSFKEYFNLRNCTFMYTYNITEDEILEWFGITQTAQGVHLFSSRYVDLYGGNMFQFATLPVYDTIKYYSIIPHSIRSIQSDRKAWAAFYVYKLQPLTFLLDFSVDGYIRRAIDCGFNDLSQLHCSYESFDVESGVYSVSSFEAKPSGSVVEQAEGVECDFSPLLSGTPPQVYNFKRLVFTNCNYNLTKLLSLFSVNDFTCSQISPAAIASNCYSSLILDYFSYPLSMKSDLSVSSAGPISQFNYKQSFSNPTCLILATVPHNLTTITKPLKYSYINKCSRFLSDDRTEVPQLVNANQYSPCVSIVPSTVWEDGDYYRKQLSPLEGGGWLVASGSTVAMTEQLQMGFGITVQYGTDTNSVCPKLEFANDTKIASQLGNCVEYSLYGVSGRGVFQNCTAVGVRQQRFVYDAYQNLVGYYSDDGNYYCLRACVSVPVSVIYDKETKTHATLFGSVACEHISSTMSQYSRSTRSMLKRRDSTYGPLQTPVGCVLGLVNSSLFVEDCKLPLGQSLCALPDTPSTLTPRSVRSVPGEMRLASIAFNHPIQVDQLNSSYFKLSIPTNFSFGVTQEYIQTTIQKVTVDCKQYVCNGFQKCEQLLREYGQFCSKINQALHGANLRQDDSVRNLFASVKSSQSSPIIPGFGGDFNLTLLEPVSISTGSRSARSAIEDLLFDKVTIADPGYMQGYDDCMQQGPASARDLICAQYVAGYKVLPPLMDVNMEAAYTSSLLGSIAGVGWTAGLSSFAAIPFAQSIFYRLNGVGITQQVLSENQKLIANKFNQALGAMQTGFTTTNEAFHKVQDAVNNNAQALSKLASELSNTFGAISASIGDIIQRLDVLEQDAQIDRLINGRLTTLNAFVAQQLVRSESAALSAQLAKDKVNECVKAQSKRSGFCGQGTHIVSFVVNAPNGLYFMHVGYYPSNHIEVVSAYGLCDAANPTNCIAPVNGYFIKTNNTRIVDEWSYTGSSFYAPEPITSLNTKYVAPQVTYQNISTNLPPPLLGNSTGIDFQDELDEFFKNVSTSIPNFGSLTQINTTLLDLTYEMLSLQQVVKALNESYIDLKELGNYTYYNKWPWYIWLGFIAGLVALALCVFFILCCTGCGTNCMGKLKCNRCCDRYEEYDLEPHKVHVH

Row | Binder | binding result
16 | B1 | binds
17 | B2 | binds
18 | B3 | binds
19 | B4 | binds
20 | B5 | binds

These binders were tested against NL63 S on HEK293T cells (Human coronavirus NL63, GenBank …, UniProt A0A1L2YVI8) (assay: flow cytometry on cells). Settings: one partner purified.

Row | Binder | binding result
21 | B1 | binds
22 | B2 | binds
23 | B3 | binds
24 | B4 | binds
25 | B5 | binds

What follows are binders tested against T6, 229E S on HEK293T cells (Human coronavirus 229E, GenBank …) (assay: flow cytometry on cells). Settings: one partner purified.
T6 construct: source: HEK293T, transiently transfected, on the cell surface
T6 sequence (P15423 16-1173): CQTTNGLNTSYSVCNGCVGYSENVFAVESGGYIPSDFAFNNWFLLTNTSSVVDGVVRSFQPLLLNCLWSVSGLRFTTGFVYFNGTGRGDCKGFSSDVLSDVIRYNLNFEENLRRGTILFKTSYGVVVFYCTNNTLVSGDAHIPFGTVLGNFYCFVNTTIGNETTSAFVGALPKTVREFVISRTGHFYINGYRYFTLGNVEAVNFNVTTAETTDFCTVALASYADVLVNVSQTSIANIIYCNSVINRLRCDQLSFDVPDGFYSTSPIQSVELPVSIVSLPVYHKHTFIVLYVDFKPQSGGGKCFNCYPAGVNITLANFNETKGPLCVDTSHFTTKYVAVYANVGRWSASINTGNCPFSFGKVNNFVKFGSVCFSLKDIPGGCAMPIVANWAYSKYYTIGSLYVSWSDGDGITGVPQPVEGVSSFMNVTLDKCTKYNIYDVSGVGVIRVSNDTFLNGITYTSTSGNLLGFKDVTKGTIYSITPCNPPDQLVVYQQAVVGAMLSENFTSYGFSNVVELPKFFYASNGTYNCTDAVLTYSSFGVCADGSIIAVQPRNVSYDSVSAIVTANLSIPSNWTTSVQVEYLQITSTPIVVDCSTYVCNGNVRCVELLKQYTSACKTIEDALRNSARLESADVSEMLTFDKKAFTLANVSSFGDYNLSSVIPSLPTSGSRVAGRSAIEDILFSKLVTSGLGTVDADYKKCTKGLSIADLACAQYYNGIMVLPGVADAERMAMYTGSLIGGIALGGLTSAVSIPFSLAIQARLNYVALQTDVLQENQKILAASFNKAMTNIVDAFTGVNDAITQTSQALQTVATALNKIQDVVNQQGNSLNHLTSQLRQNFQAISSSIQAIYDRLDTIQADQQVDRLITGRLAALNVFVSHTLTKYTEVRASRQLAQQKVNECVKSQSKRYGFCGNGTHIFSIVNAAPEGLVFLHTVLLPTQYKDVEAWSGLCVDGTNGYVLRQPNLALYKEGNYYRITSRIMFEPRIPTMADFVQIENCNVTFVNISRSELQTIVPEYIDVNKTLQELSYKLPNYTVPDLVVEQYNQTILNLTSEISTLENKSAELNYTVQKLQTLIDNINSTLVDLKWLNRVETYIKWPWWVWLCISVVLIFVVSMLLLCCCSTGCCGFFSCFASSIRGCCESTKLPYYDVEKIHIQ

Row | Binder | binding result
26 | B1 | binds
27 | B2 | binds
28 | B3 | binds
29 | B4 | binds
30 | B5 | binds

Biological target: T1, SARS-CoV-2 S fusion peptide K811[…]825
Test: crystal structure; Fab in complex with the fusion peptide K811-K825
Settings: both partners purified

Row | Binder | binding result
31 | B6 | binds
32 | B7 | binds
33 | B8 | binds
34 | B9 | binds
35 | B10 | binds

Each binder was assayed against SARS-CoV-2 S protein (commercially available, recombinant) (SARS-CoV-2 (Wuhan-Hu-1 assumed), UniProt P0DTC2) (assay: ELISA; mAbs titrated on commercially available hCoV S proteins; EC50 (Fig. 1E)). Settings: both partners purified.

Row | Binder | binding result
36 | B1 | binds
37 | B2 | binds
38 | B3 | binds
39 | B4 | binds
40 | B5 | binds

These binders were tested against OC43 S protein (commercially available, recombinant) (human coronavirus OC43, strain not …, UniProt P36334) in the same assay as above. Settings: both partners purified.

Row | Binder | binding result
41 | B1 | binds
42 | B2 | binds
43 | B3 | binds
44 | B4 | binds
45 | B5 | binds

What follows are binders tested against HKU1 S protein (commercially available, recombinant) (human coronavirus HKU1, isolate not …, UniProt Q5MQD0) in the same assay as above. Settings: both partners purified.
Chain of HKU1 S protein (commercially available, recombinant) (Q5MQD0 13-1356): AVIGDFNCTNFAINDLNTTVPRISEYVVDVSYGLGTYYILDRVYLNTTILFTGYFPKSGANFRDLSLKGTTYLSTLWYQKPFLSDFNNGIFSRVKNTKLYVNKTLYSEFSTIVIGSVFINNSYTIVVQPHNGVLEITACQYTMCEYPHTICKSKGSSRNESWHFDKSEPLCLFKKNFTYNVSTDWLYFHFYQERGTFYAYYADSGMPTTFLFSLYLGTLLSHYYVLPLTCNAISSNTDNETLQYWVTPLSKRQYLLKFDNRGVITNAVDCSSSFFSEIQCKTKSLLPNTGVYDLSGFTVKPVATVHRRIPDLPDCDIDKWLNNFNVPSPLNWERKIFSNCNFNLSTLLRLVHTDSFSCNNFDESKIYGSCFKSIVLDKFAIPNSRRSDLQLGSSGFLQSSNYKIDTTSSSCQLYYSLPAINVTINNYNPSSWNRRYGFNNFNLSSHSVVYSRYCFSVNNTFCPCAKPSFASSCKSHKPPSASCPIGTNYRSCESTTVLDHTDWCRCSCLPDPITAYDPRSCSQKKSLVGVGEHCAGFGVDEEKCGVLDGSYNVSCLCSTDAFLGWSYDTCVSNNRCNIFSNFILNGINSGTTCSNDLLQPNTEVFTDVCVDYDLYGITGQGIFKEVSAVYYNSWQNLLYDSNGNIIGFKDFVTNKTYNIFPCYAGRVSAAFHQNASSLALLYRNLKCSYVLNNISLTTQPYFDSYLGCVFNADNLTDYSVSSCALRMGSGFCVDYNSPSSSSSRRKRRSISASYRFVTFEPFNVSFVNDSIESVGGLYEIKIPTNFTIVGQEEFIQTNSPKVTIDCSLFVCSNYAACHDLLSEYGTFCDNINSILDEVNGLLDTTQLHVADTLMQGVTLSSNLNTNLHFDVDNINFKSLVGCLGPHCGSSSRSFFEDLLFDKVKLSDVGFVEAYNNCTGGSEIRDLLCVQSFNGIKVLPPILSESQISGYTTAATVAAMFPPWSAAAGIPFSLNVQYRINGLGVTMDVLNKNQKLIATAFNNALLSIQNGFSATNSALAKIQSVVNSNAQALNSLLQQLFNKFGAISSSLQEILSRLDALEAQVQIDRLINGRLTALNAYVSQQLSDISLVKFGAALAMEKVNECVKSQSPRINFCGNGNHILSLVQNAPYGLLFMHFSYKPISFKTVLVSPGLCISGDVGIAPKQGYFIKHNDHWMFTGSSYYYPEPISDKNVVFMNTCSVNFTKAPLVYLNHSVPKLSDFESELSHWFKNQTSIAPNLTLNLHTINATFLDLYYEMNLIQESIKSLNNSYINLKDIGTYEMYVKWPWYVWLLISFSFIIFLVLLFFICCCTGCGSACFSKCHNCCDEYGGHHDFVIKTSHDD

Row | Binder | binding result
46 | B1 | binds
47 | B2 | binds
48 | B3 | binds
49 | B4 | binds
50 | B5 | binds

These binders were tested against NL63 S protein (commercially available, recombinant) (human coronavirus NL63, strain of …, UniProt A0A1L2YVI8) in the same assay as above. Settings: both partners purified.

Row | Binder | binding result
51 | B1 | binds
52 | B2 | binds
53 | B3 | binds
54 | B4 | binds
55 | B5 | binds

Biological target: T2, 229E S protein (commercially available, …)
Test: as above
Settings: both partners purified

Row | Binder | binding result
56 | B1 | binds
57 | B2 | binds
58 | B3 | binds
59 | B4 | binds
60 | B5 | binds
